In patent US20210062171A1, “NOVEL SIALIDASES AND USES THEREOF” (The Regents of the University of California, priority 2019, published 2021):
“Also recorded” adds a separate entry of the source.

What was measured:
Type in all cases: biochemical
[1] = In vitro sialidase activity assay on mixed WT and Cmah−/− mouse serum (DMB derivatization, HPLC); settings: purified enzyme 0.5-10 μg; pH 6.5, 7.0 and 8.0; 1 hour at 37° C.
Procedure: Bin13 sialidases were tested for Neu5Gc release. Each of the five sialidases genes in bin13 were PCR amplified (FIG. 12) and heterologously expressed in vitro, purified, and assayed for its substrate preference. Sialidase activity measurements were performed using different enzyme concentrations (0.5-10 μg) at three different pH levels (6.5, 7.0, and 8) (FIGS. 3A, 13). […] Additionally, we tested in vivo sialidase activity in fresh fecal samples. Clarified fecal pellets from mice fed with PSM tend to preferentially release Neu5Gc compared to clarified fecal pellets from mice fed with Soy (FIG. 3D).
Sialidases purified as described above were quantified using SDS-PAGE image analysis with BSA references (Bio-Rad) and absorbance using the Nanophotometer P330 (Implen), with extinction coefficients calculated using ExPASy Translate. […] The samples were kept at −20° C. until derivatization and analyzed by HPLC as described below. […] The DMB-derivatized samples were analyzed on a Dionex Ultra3000 HPLC System using a Phenomenex Gemini 5μ C18 250×4.6-mm HPLC column at room temperature, eluted in isocratic mode with 85% water, 7% methanol, 8% acetonitrile. […]

[2] = Sialidase activity on food sources (Neu5Gc release); settings: 2 μg enzyme, 2 h at 37° C., Tris-HCl pH 7; beef, pork, PSM chow
Source text: Fecal shotgun metagenomes from the Hadza people (Table 4), a genetically distinct indigenous ethnic group that resides in remote Tanzania was reanalyzed. The Hadza are hunter-gatherers and change their diet periodically throughout the year according to food availability. In dry seasons, their diet is enriched in meat and tubers, whereas in wet seasons it consists largely of honey and berries. Raw reads from Hadza metagenomes were mapped to bin13. […] To evaluate the sialidases genes present in the Hadza microbiome, the combined metagenomes were co-assembled and 24 genome bins containing 51 sialidase genes were identified (FIG. 17, Table 5). The binHz19, whose closest relative was Alistipes sp., was equally abundant in microbiomes from both seasons (FIG. 2B, Table 5). […] This difference supports the notion that sialidaseHz136 is capable of metabolizing structurally diverse glycans, a concept that would be of benefit to an individual with seasonal variations in diet. To additionally determine if sialidase26 and sialidaseHz136 can release Neu5Gc from food sources directly, we test their activity on beef, pork, and PSM chow as substrate.
Beef (New York Steak) and pork (breakfast sausage) were purchased at Whole Foods Market and cut in small pieces using sterile blades. PSM chow was powdered using mortar and pestle. […]

[3] = Fluorogenic sialidase assay with 4MU-α-Neu5Gc; settings: for Hydrolysis of 4MU-α-Neu5Gc: compost metagenomic fosmid clones in E. coli, fluorescence λex=365 nm, λem=445 nm; for Preference for Neu5Gc hydrolysis compared to known bacterial exo-sialidases: in vitro, 4MU-α-Neu5Gc versus 4MU-α-Neu5Ac, comparators Au, Cp, Mv, St, Vc sialidases
Source text: To determine if Neu5Gc-specific sialidases are restricted to enteric bacteria, we utilized functional metagenomic screening to identify exo-sialidases with a Neu5Gc specificity in a terrestrial environment. A fosmid library containing ˜40 kb inserts of total environmental DNA isolated from soil from an organic composting facility was constructed in E. coli Lysates from 5,376 clones were screened for hydrolysis of 4MU-α-Neu5Gc. During environmental DNA extraction 100, environmental samples 102 are collected and environmental DNA 104 is extracted. DNA extraction is followed by metagenomics library production 110 where fosmid vectors 112 are ligated with environmental DNA to produce plasmids 114 that are transfected into E. coli cells 116. During functional screening 120, one clone 122 is present per well in a well plate and hits 124 are selected by a means known in the art. Following functional screening 120, hits 132 are sequenced during a sequencing step 130 using any method for sequencing known in the art. Gene prediction and database comparison 140 is used to identify enzyme candidates 142; the enzyme candidates are expressed and characterized 150 in plasmids 152, which are transfected into E. coli and expressed as enzymes 154 for further characterization and/or use.
(§1) Following the enzyme selection process, clones showing activity were tested subsequently and re-tested for their ability to cleave 4MU-α-Neu5Ac. […] The DNA sequence of cloned inserts from C19 and C22 each encoded a single bacterial sialidase gene.
(§2) The compost metagenomic library (theoretically encoding ˜215,000 environmental genes) was differentially screened with fluorogenic 2′-(4-methylumbelliferyl)-α-D-N-glycolylneuraminic acid (4MU-α-Neu5Gc) (Sussex Research, Ottawa, CA) and 2′-(4-methylumbelliferyl)-α-D-N-acetyineuraminic acid 4MU-α-Neu5Ac (Toronto Research Chemicals, Toronto, CA) substrates. In a primary screen, library clones were grown in 384-well plates containing 50 μL LB liquid cultures (10 g tryptone. 5 g yeast extract, 10 g NaCl, 1 g dextrose, 1 g MgCl2-6H2O, 2 mL of 2M NaOH per liter, containing chloramphenicol 12.5 μg/mL and 1× inducing solution (Lucigen Corporation)) overnight at 37° C. Fifty microliters of Y-per lysis buffer (Thermo Fischer Scientific, Waltham, Mass.) containing 40 μg/mL of 4MU-α-Neu5Gc was added to each well. The mixtures were incubated overnight at 37° C. in a static incubator. Fluorescence at λex=365 nm and λem=445 nm was read with a SpectraMax Plus 384 Microplate Reader (Molecular Devices, Sunnyvale, Calif.) at 6 h, 24 h and 48 h. Positive clones were defined as those showing fluorescence greater than 3 standard deviations above the mean background, and each was re-archived in a fresh 384-well plate in sterile 20% (v/v) glycerol. […]

[4] = Fluorogenic sialidase assay with 4MU-α-Neu5Ac; settings: compost metagenomic fosmid clones in E. coli, fluorescence λex=365 nm, λem=445 nm
Procedure: as §1
as §2, with “Fifty microliters of Y-per lysis buffer (Thermo Fischer Scientific, Waltham, Mass.) containing 40 μg/mL of 4MU-α-Neu5Gc was added to each well. The mixtures were incubated overnight at 37° C. in a static incubator.” left out

Molecule	Substrate preference, Neu5Gc versus Neu5Ac release [1]	Release of Neu5Gc from food [2]	Hydrolysis of 4MU-α-Neu5Gc [3]	Preference for Neu5Gc hydrolysis compared to known bacterial exo-sialidases [3]	Activity on 4MU-α-Neu5Ac [4]
sialidase26: Bin13 GH33 sialidase from mouse gut metagenome, SEQ ID NO. 4, PDB 6MRX (protein, Environmental sample, 4, PDB 6MRX) MKKNLFLSIIFSFCVILQAFASDTVFVRETQIPVLIERQDNVLFMLRLNAKESHTLDEVVLNFGKDVNMSDIQSVKLYYSGTEARQNYGKNFFAPVSYISSHTPGKTLAANPSYSINKSQVNNPKRKVALKANQKLFPGINYFWISLQMKPDASLLDKVAAKIAAIKVDNKEALMHTVSPENIVHRVGVGVRHAGDDGSASFRIPGLVTTNKGTLLGVYDVRYNNSADLQEHVDIGLSRSVDGGKTWEKMRLPLAFGETGDLPAAQNGVGDPSILVDTKTNTVWVVAAWTHGMGNQRAWWSSYPGMDMNHTAQLVLSKSTDDGKTWSKPINITEQVKDPSWYFLLQGPGRGITMQDGTLVFPIQFIDSTRVPNAGIMYSKDRGETWKIHNYARTNTTEAQVAEVEPGVLMLNMRDNRGGSRAISTTKDLGKTWTEHSSSRKALQEPVCMASLISVKAKDNVLNKDILLFSNPNTVKGRHHITIKASLDGGVTWLPEHQVMLDEGEGWGYSCLTMIDKETIGILYESSVAHMTFQAVQLRDIIK	preference for Neu5Gc	pronounced sialidase activity by releasing Neu5Gc from all food tested			
sialidaseHz136: Sialidase from binHz19 of Hadza shotgun metagenome, SEQ ID NO. 6, PDB 6MNJ (protein, Environmental sample, 6, PDB 6MNJ) MMKRTFWLIALSLLSLTLSASDSLRIHNPQIPILLDRMDNVLFLIRVPDAVQGNVLESLTVEFGPDTDLNSIAELRLFYSGTEAVRRQGLRFSPVEYISAHNVWNTRSANPSYSVMQEQASKIGRKVVLHSRQPMVGGINYYWVSVRMNPDASLLTELRARVSEVVVNGKKIPVACDSREVVRRMGYGVRHAGDDHSMAYRIPGLVTTNSGSLIGTYDVRWNSSVDLQERIDIGVSRSTDKGQTWEPMRIAMSFADIDGLPSGQNGVGDPAVLVDEKTGTIWVMAAWTHGMGNGRAWTNSMPGMEPMETPQLMLARSDDDGRTWSEPINITKQVKDPSWCFLLQGPGRGITMRDGTLVFAIQFIDKDRMPHAGIIFSKDHGETWHIHNPARSNTTEAQVAEVEPGVLMLNMRDNRGGARAVMTTRDLGRTWTEHVSHRTTLREPVCMASLIAVPAEKNVLGKDLLLFSNPDTTDGRRDITIKASLDGGVTWPYSLLLDEGDSWGYSCLTMIDSQTVGILYESSVAHITFQAAKLKAIVK	preferential activity for Neu5Gc over Neu5Ac in all tested conditions	pronounced sialidase activity by releasing Neu5Gc from all food tested			
C19: GH33 exo-sialidase from compost soil metagenomic fosmid clone C19, SEQ ID NO. 7 (protein, Environmental sample) MKRTGWLLLLVSGPALCQPPRGYSIPLIDLAAEAWRQTVVDREPGQYLGHPTTVLLEDGRTVLAVYPKGHGRGAIVYKRSRDGGRTWSARLPVPENWATSQETPTIHRVVDPRGRKRLILFSGLYPIRMSVSEDDGETWTPLAPIGNFGGVVAMASVERLRDGRYMALFHDDGRFLRGGGKPDRFVVYKTLSGDGGLTWSEPVPILSHPQAHLCEPGLLRSPDGRRIAILLRENSRKFNSFVSFSDDEGETWSEPRELPGALTGDRHTAVYARDGRLFISFRDTTHESPTRGDWVAWVGRFGDIENGREGQYRVRLMKNHKDLDCCYPGVLRLPDDTILTTTYGHWTPGEPPYIVSIRLRLSELDRRAQGAGR			significant hydrolysis; also recorded: significant activity	marked preference for Neu5Gc hydrolysis	only minor activity
C22: GH33 exo-sialidase from compost soil metagenomic fosmid clone C22, SEQ ID NO. 8 (protein, Environmental sample) MVIAWMAGVQCTAAALVDLGVTILDISGEPERQVIVDREPGQYLGHVSTVLLEDDKTILAVYPKGHGRGAIVLKRSEDGGRTWSGRLPVPASWATSKETPTIHRVVDARGRRRLLLWSGLYPARRALSDDDGRTWTELEPVGEWGGIVVMGFVEATRQPGHYVAMFHDDGRYFAAQPSTNRSMTLYLTRSSDGGVSWSSPVAVWSNSAVHLCEPGGIWSPDRRRLAVLLRENRRVNNSHIMFSDDEGHTWTTPVEMPLSRAGDRHTLRYTPDGRIVCVFRAVTPVGMRGRSFGQNEDVDTLGVGSPFEGDCVAWVGTWDDLVHNRPGQYYVRLLNNRKGWDTTYPGVEVLPDGTVVVTTYGHWNAGEPPYIRSVRFRLEELDRMAAKASQKP			significant hydrolysis; also recorded: significant activity	marked preference for Neu5Gc hydrolysis	only minor activity
